Measured values: patent publication US7067495

Target: human IL-8 in L-CMV melanoma cell conditioned medium (human) (UniProt P10145)
Assay: cell-based or functional assay

Chain of UniProt P10145 (P10145 23-99 limits assumed): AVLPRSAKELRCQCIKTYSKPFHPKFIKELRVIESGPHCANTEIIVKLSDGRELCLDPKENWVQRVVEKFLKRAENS

inhibition of PMNLs chemotaxis induced by L-CMV CCM: 30%
Substance: mouse anti-hIL-8 mAb (6214.11, R&D Systems) (antibody)
